From patent publication US20250381277A1, “COMPOSITIONS AND METHODS FOR TREATMENT OF NEUROLOGICAL DISORDERS” (Dana-Farber Cancer Institute, Inc., priority 2022, published 2025)

Experiments:
[1] = molecular target: osteopontin (OPN) produced by mouse microglia (mouse) (UniProt P10923); assay: intracellular flow cytometry, SSC against OPN, microglia stained with the isotype control (the legend says only 'Isotype control'; genotype of this panel not labelled) [b]
[2] = molecular target: osteopontin (OPN) produced by mouse microglia (mouse) (UniProt P10923); assay: intracellular flow cytometry, SSC against OPN, microglia of 9-mo mice stained with the isotype control 1:10 (genotype of this panel not labelled)
[3] = molecular target: CD11b on microglia from 5XFAD mice (mouse) (UniProt P05555); assay: flow cytometry, AF488-CD11b fluorescence, microglia from 5XFAD mice; isotype control histogram (top trace) [B]
[4] = tested on: CD11c^− microglia; assay: Apoptotic neuron (AN) uptake and CD11c^- to CD11c^+ differentiation of microglia with αVβ3 / TAM receptor inhibitors; format: cell-based, mouse; details: P5 B6-WT CD11c^− microglia, 72 h with pHrodo-labeled ANs 1:1; cilengitide 10 μM, LDC1267 1 μM
Excerpt: (A) Brain single cell suspensions of 9-mo old WT mice were generated for validation of microglial CD11c expression by flow cytometry. We first gate on CD11b^+ cells from single/live cells followed by subsequent gating of CD11b^+CD45^low populations as potential microglia. […] In contrast, CCR2 but not Tmem 119 expression is detected in the CD11b^+CD45^high fraction, i.e., putative macrophage populations. Analysis of the CD11b^+CD45^low microglial population using FMO negative controls for these FACS plots confirms specificity. […] (B) The proportion of CD11c^+ microglia in C57BL/6 (B6) mice during early development and normal aging (n=3) was determined by flow cytometry analysis. CD11c^+ microglia were initially present at late embryonic day (E18.5), peaked at early postanal day (P5) and gradually declined to marginal levels in young adulthood (3-mon) followed by re-emergence and further expansion during aging. (C) CD11c^− microglia were isolated from P5 B6-WT mice by negative section with anti-CD11c magnetic beads (purity >99%) followed by co-incubation×72 h in the presence or absence of pHrodo fluorescent dye-labeled apoptotic neurons (ANs) at a 1:1 ratio. After 72 h incubation, 23% of total CD11c^− microglia had ingested ANs (AN^+), of which 77.4% of these AN^+ microglia were CD11c^+. […] Expression of CD11c was assessed in CD86^+ or MHC II^+ activated microglia. […]

UniProt P10923, sequence (P10923 17-294 limits assumed): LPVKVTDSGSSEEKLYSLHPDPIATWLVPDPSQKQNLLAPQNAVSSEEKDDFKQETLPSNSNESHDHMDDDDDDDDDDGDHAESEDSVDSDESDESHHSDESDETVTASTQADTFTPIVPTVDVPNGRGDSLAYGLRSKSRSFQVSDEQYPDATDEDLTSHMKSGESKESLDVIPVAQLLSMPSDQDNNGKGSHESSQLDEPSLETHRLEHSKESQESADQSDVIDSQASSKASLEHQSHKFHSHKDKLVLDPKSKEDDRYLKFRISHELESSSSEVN
UniProt P05555, sequence (P05555 17-1153): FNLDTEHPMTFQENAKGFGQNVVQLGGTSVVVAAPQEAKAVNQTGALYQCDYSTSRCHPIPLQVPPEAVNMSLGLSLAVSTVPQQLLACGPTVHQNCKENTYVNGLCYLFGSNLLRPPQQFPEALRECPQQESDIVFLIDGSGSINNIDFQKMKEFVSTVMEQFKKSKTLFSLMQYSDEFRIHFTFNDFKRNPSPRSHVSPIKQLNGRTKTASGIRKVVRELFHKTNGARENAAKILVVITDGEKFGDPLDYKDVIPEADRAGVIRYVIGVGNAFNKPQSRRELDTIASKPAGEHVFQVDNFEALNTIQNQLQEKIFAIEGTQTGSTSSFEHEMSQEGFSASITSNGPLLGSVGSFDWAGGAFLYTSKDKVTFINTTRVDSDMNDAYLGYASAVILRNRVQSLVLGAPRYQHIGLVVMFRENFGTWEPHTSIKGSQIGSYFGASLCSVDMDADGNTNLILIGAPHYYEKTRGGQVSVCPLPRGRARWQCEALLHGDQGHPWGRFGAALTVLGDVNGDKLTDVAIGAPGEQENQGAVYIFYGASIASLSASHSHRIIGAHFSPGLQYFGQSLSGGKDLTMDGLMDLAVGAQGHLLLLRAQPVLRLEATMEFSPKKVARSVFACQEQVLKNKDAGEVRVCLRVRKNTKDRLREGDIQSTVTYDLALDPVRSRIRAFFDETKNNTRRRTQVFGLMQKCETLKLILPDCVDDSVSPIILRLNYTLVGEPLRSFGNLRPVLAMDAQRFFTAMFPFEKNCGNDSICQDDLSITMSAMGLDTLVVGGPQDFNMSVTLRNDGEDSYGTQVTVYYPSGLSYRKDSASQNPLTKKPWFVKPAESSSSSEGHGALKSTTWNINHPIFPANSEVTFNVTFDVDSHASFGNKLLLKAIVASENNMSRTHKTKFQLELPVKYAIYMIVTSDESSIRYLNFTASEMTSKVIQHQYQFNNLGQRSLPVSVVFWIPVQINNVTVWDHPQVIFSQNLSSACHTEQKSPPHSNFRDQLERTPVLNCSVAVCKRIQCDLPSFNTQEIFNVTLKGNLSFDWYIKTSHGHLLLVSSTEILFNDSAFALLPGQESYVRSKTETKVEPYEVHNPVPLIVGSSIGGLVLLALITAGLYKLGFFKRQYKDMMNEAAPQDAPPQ

Compound: isotype control (PE-conjugated goat IgG) (antibody)
- number printed in the OPN+ gate (frequency of OPN+ microglia) [1]: 0.25%
- number printed over the OPN+ gate (frequency of OPN+ microglia) [2]: 0.4%

Compound: Isotype (antibody)
- CD11b+ microglia (%) [3]: 0.4%

Compound: CCOc1cn(-c2ccc(F)cc2C)nc1C(=O)Nc1ccc(Oc2ccnc3cc(OC)c(OC)cc23)c(F)c1 [LDC1267]
- reduction of AN uptake by CD11c^− microglia [4]: about 50%
